Results from patent US20100154070.

Tested on: piggyBac transposase (PBase) (Trichoplusia ni)
Assay: cell_activity

## PB[Act-RFP] donor transposon (PBL/PBR termini)
Mouse pronuclear co-injection with Act-PBase, 10.4% without helper, precise excision in male germline shown with Prm1-PBase (p230)
  activity (% transposon single-positive founders): 34.8

## PB[K14-Tyr, Act-RFP] donor transposon
mouse, 26/31 founders, Act-PBase
  activity (% founders with transposition): 83.9

## PB[PGK-neo] donor transposon (PBL/PBR termini)
Mouse W4/129S6 ES cells, Act-PBase helper, scale: fold drug-resistant clones vs donor alone
  activity: 50

## PB[SV40-neo] donor transposon (PBL/PBR termini)
Human 293 cells, CMV-PBase helper, scale: fold G418-resistant clones vs donor alone
  activity: 10
